Changes are numbered by the printed parent chain. Names may count otherwise.
T1: GST-Ana2, full length (Drosophila, UniProt Q9XZ31 1-420)
T1 sequence (looked up): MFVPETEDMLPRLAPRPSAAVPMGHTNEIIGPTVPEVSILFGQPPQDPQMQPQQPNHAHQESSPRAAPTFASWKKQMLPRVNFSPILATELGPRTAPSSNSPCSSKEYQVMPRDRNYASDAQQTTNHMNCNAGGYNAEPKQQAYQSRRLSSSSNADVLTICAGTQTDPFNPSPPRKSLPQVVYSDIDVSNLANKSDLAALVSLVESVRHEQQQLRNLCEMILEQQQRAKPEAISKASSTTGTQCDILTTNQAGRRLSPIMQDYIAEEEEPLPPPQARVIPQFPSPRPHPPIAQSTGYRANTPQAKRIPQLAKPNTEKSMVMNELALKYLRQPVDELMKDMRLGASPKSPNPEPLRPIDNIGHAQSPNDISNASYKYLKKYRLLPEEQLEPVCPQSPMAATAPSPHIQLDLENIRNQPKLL

B1: V5-Ana2 (anastral spindle 2), full length, wild type (natural protein)
chain: T1 sequence (looked up)
B2: Plk4 1–317-FLAG-His6 (domain or fragment, Drosophila, UniProt O97143 1-317, looked up)
chain: MLSNRAFGETIEDYEVQHLLGKGGFATVYKARCLHTHQDVAIKMIDKKLIQGTGLTNRVRQEVEIHSRLKHPSVLQLYTFFQDANYVYLVLELAHNGELHRYMNHIARPFTETEAASILKQVVAGLLYLHSHNIMHRDISLSNLLLSREMHVKIADFGLATQLKRPDERHMTMCGTPNYISPEVVSRTSHGLPADVWSVGCMLYTLLVGRPPFETDAVQSTLNKVVMSEYIMPAHLSYEAQDLINKLLKKLPHERITLEAVLCHPFMLKCSNGGHSAPGALNVFSQSMESGDSGIITFASSDSRNSQQIRSVENSGP
B3: MBP-Ana2 NT (aa 1–317), wild type (domain or fragment, Drosophila, UniProt Q9XZ31 1-317, looked up)
chain: MFVPETEDMLPRLAPRPSAAVPMGHTNEIIGPTVPEVSILFGQPPQDPQMQPQQPNHAHQESSPRAAPTFASWKKQMLPRVNFSPILATELGPRTAPSSNSPCSSKEYQVMPRDRNYASDAQQTTNHMNCNAGGYNAEPKQQAYQSRRLSSSSNADVLTICAGTQTDPFNPSPPRKSLPQVVYSDIDVSNLANKSDLAALVSLVESVRHEQQQLRNLCEMILEQQQRAKPEAISKASSTTGTQCDILTTNQAGRRLSPIMQDYIAEEEEPLPPPQARVIPQFPSPRPHPPIAQSTGYRANTPQAKRIPQLAKPNTEK
B4: MBP-Ana2 NT-2PM (aa 1–317, T33E/S38D) (domain or fragment, Drosophila, UniProt Q9XZ31 1-317, looked up)
chain: B3 chain with T33E, S38D
B5: His6-Ana2 CT (aa 318–420), wild type (domain or fragment, Drosophila, UniProt Q9XZ31 318-420, looked up)
chain: SMVMNELALKYLRQPVDELMKDMRLGASPKSPNPEPLRPIDNIGHAQSPNDISNASYKYLKKYRLLPEEQLEPVCPQSPMAATAPSPHIQLDLENIRNQPKLL

Tests used:
[1] = target: MBP-Ana2 NT-2PM (aa 1–317, T33E/S38D) (Drosophila) (UniProt Q9XZ31); assay: pull-down
[2] = target: Plk4-GFP lacking PB3 (Drosophila); assay: co-IP
[3] = target: Plk4-GFP lacking the putative CC and PB3 (Drosophila); assay: co-IP
GST-Ana2, full length = target: T1, GST-Ana2, full length; assay: pull-down
pull-down = target: the molecule itself; assay: pull-down
[4] = target: B4; assay: pull-down

Molecule “His6-Ana2 CT-3PM (aa 318–420, S318/S370/S373 phosphomimetic) (from UniProt Q9XZ31 318-420) (domain or fragment)” has a fold of His6-Ana2 CT pulled down relative to WT NT with WT CT [1] of 3.5 fold.

B1 gave a fold decrease of co-precipitated Ana2 on deletion of PB3 [2] of 2 fold and a further fold decrease of co-precipitated Ana2 relative to deletion of PB3 alone [3] of 2 fold.

B2: binds (GST-Ana2, full length).

B3: binds (pull-down).

B4: binds (pull-down).

B5: binds [4].

— article PMC5881488 (The Journal of Cell Biology, 2018)
